The text below walks through data of paper PMC3077550 (Nature cell biology, 2011).

Residue numbers refer to the chain shown, from its start.

For one assay, the target named is T1, GST-BIN2 (Arabidopsis thaliana, UniProt Q39011 1-380).
T1 sequence (looked up): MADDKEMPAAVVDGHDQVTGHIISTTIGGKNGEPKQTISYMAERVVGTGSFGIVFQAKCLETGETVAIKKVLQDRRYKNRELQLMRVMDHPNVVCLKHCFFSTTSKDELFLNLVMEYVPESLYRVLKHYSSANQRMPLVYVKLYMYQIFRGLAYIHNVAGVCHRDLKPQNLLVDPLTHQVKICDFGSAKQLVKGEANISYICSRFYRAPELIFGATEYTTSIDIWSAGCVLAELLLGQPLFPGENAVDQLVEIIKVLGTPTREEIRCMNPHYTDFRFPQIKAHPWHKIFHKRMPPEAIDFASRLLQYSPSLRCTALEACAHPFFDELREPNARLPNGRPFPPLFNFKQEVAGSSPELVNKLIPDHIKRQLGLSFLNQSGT
The experiment in a line: far-Western, overlay or dot blot.

A further assay concerns the target T2, GST-PP2AB’α (Arabidopsis thaliana, UniProt O04375 1-495).
T2 sequence (looked up): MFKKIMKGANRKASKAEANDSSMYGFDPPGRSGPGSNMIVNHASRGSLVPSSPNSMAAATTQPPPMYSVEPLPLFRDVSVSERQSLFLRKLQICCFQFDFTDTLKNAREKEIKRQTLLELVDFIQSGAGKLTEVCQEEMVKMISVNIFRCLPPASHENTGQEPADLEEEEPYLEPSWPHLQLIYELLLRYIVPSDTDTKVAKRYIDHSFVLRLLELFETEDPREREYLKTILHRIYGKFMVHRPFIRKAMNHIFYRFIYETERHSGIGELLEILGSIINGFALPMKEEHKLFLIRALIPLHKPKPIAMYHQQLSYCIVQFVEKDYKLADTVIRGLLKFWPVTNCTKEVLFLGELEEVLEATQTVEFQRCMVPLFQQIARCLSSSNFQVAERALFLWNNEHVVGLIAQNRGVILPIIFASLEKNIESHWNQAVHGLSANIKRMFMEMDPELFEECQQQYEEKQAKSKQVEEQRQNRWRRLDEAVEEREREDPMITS
The experiment in a line: far-Western, overlay or dot blot.

B1: MBP-BZR1 (unphosphorylated) (natural protein, Arabidopsis thaliana, UniProt Q8S307 1-336, looked up)
chain: MTSDGATSTSAAAAAAAAAAARRKPSWRERENNRRRERRRRAVAAKIYTGLRAQGDYNLPKHCDNNEVLKALCVEAGWVVEEDGTTYRKGCKPLPGEIAGTSSRVTPYSSQNQSPLSSAFQSPIPSYQVSPSSSSFPSPSRGEPNNNMSSTFFPFLRNGGIPSSLPSLRISNSCPVTPPVSSPTSKNPKPLPNWESIAKQSMAIAKQSMASFNYPFYAVSAPASPTHRHQFHTPATIPECDESDSSTVDSGHWISFQKFAQQQPFSASMVPTSPTFNLVKPAPQQMSPNTAAFQEIGQSSEFKFENSQVKPWEGERIHDVGMEDLELTLGNGKARG
On to B1, for which the binding result with GST-BIN2 and with GST-PP2AB’α was “binds” in each case.

B2: MBP-bzr1-1D (natural protein, Arabidopsis thaliana, UniProt Q8S307 1-336, looked up)
chain: B1 chain with P234L
Consider B2, for which the binding result with GST-BIN2 and in the assay with GST-PP2AB’α was “binds” each time.
